Test results as given in patent US20120201746A1.

Target: Neonatal Fc receptor (FcRn) on CHO-FcRnGPI cells
Assay: flow cytometry on CHO-FcRnGPI cells, pH 6.4

EC50: 0.0504 µM
Substance: Control mAb (antibody)
